Assay [1] has as its target Recombinant TTR variant TTR_S52P. Kind of assay: SPR (ProteOn), Amyposomes flowed over immobilised aggregates; concentration as exposed PA; TTR aggregates.
For assay [2], the target named is Truncated amyloidogenic form of Serum Amyloid A, SAA(1-76) (Homo sapiens (Human)) (UniProt P0DJI8). Kind of assay: cell-based or functional assay.
Assay [3] concerns the target Recombinant β2-microglobulin variant β2m_D76N (Pongo pygmaeus (Bornean orangutan)) (UniProt P16213). Kind of assay: cell-based or functional assay.
For assay [4], the target named is Recombinant β2-microglobulin variant β2m_ΔN6 (Pongo pygmaeus (Bornean orangutan)) (UniProt P16213). Description: cell-based or functional assay.
Assay [5] addresses Human Beta-Amyloid (1-40) (human). Kind of assay: cell-based or functional assay.
Assay [6] concerns the target Recombinant TTR variant TTR_S52P. Description: cell-based or functional assay.
Assay [7] concerns the target Human Beta-Amyloid (1-40) (human). Description: SPR (ProteOn), Amyposomes flowed over immobilised fibrils; concentration as exposed PA; Aβ1-40 fibrils.

Sequence of Human Beta-Amyloid (1-40) (human) (peptide, as listed by the source): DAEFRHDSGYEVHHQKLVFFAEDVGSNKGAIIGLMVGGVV
Sequence of UniProt P0DJI8 (P0DJI8 other isoform, or with tags, fused parts or gaps limits assumed): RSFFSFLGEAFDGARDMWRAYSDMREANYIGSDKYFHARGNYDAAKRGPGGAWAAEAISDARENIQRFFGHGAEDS

The term Kd denotes the free concentration of one partner at which half of the binding sites on the other are occupied at equilibrium, for simple one-to-one binding. Regarding “Amyposomes (liposomes composed of sphingomyelin/cholesterol, functionalized with phosphatidic acid and with mApoE peptide covalently linked to the outer surface)”, the Kd in assay [1] worked out at 14.2 µM. Also, the ThT fluorescence, residual aggregates after 72 h, protein:Amyposomes 1:50 in assay [2] was determined as 30%. Besides, in assay [3], the ThT fluorescence, final aggregation extent with respect to protein alone, D76N:Amyposomes 1:50 amounted to 36%; the ThT fluorescence, residual aggregates after 3 days, protein:Amyposomes 1:30 and 1:50 worked out at 15%. In assay [4], the ThT fluorescence, aggregation extent with respect to protein alone, protein:Amyposomes 1:50 is 20% and the ThT fluorescence, residual aggregates, protein:Amyposomes 1:50 worked out at 50%. Moreover, in assay [5], the ThT fluorescence, residual aggregates after 24 h, peptide:Amyposomes 1:50 was 40% and the ThT fluorescence, residual aggregates after 5 days, peptide:Amyposomes 1:50 stood at 10%. For the same substance, in assay [6], the ThT fluorescence, aggregation with respect to protein alone, TTR:Amyposomes 1:50 came to 40% and the ThT fluorescence, residual aggregates after 5 h, TTR:Amyposomes 1:50 came out at 5%. For the same substance, the Kd in assay [7] worked out at 0.12 µM.
